According to patent US20090054317A1:

Target: ANTXR2 expressed in RAW264.7 cells, Q6DFX2
Experiment: cell-based or functional assay

Sequence of ANTXR2 expressed in RAW264.7 cells, Q6DFX2 (Q6DFX2 32-487 limits assumed): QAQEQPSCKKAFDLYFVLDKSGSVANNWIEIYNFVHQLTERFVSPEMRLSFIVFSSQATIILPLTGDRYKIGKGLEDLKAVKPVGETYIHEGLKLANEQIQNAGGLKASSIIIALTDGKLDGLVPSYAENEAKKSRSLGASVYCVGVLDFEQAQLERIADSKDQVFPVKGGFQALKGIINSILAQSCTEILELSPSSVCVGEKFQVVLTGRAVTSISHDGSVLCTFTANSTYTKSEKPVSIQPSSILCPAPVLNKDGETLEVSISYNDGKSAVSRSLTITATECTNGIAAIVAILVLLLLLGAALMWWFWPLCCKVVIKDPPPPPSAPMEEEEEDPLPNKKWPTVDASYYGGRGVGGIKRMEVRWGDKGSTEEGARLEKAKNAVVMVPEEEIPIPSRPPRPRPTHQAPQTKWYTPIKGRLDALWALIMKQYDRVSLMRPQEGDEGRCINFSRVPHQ

Q: What does the source list for AWPLSQLDHSYNC (modifications not checked) [… (SEQ ID NO: 3)-functionalized liposomes]?
A: Activity against toxin-induced cell death in RAW264.7 cells (IC50): 40 nM; enhancement in the activity of the peptide by polyvalency (against the monovalent peptide): > 50000 fold
